The results in this text go back to patent EP2014310A2 (Dyax Corporation, dated 2009).

The target in the test is T1, human KDR-Fc fusion (R&D Systems #357-KD-050) (human, UniProt P35968 20-764).
T1 construct: bought
Description: phage binding screen on KDR-Fc; class legend in paragraph 246.

Ends that are not written are not given here.

T1 sequence (P35968 20-764): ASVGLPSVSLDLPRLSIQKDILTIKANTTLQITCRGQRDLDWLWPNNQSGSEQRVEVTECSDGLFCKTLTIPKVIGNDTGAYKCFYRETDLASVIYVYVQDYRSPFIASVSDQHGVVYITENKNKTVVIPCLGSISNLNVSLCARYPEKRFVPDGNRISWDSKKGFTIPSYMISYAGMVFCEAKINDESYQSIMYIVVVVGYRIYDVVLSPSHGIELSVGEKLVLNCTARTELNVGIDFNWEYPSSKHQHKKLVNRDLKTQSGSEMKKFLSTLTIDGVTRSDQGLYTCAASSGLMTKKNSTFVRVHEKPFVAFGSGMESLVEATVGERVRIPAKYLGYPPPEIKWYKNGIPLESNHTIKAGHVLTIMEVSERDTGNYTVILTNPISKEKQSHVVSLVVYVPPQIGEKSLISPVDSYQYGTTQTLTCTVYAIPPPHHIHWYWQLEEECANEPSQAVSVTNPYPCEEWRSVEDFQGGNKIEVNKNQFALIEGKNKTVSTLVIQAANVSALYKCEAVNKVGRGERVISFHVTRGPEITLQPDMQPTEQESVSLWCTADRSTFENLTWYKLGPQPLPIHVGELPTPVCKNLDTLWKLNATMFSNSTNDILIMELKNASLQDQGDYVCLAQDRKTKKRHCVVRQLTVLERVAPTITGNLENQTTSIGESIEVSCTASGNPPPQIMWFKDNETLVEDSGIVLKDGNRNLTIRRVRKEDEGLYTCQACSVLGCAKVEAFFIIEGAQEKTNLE

B1: phage isolate LDNCIWNVWKGVQDCEYS (peptide)
peptide: LDNCIWNVWKGVQDCEYS
For B1, the binding result was “binds”.

B2: phage isolate PFWCKFQQSKAMFPCSWF (peptide)
peptide: PFWCKFQQSKAMFPCSWF
With B2, the binding result is on record as “binds”.

B3: phage isolate DSWCELEHQSGIWRCDFW (peptide)
peptide: DSWCELEHQSGIWRCDFW
Consider B3, for which the binding result was “binds”.

B4: phage isolate DWACDEYWSAYSVLCKHP (peptide)
peptide: DWACDEYWSAYSVLCKHP
On to B4, for which the binding result is “binds”.

B5: phage isolate PGWCDFSPQLGQWMCDWF (peptide)
peptide: PGWCDFSPQLGQWMCDWF
Regarding B5, the binding result is recorded as “binds”.

B6: phage isolate NWKCEYTQGYDYTECVYL (peptide)
peptide: NWKCEYTQGYDYTECVYL
For the molecule B6, the binding result is given as “binds”.

B7: phage isolate PDTCTMWGDSGRWYCFPA (peptide)
peptide: PDTCTMWGDSGRWYCFPA
Take B7: the binding result is “binds”.

B8: phage isolate GGWCQLVDHSWWWCGDS (peptide)
peptide: GGWCQLVDHSWWWCGDS
For B8, the binding result is given as “binds”.

B9: phage isolate LGYCMYDYENRGWTCYPP (peptide)
peptide: LGYCMYDYENRGWTCYPP
modifications: not fully specified; cysteine pairing not given here
Regarding B9, the binding result is given as “binds”.

B10: phage isolate YYQCQRYWDGKTWWCEYN (peptide)
peptide: YYQCQRYWDGKTWWCEYN
As to B10, the binding result was “binds”.

B11: phage isolate LSLCYNDMHGWWEHCQWY (peptide)
peptide: LSLCYNDMHGWWEHCQWY
Turning to B11, the binding result is “binds”.

B12: phage isolate GWACAKWPWGGEICQPS (peptide)
peptide: GWACAKWPWGGEICQPS
In the case of B12, the binding result was “binds”.

B13: phage isolate GWCQMDAQGIWSCWAD (peptide)
peptide: GWCQMDAQGIWSCWAD
Regarding B13, the binding result was “binds”.

B14: phage isolate DRWCMLDQEKGWWLCGPP (peptide)
peptide: DRWCMLDQEKGWWLCGPP
As for B14, the binding result is given as “binds”.

B15: phage isolate NWECGWSNMFQKEFCARP (peptide)
peptide: NWECGWSNMFQKEFCARP
Regarding B15, the binding result was “binds”.

B16: phage isolate YSHCIETSMENIWFCDFD (peptide)
peptide: YSHCIETSMENIWFCDFD
On to B16, for which the binding result was “binds”.

B17: phage isolate AGWCEYVAPQGAWRCFHN (peptide)
peptide: AGWCEYVAPQGAWRCFHN
In the case of B17, the binding result is given as “binds”.

B18: phage isolate PPFCIYQEPSGQWWCYDH (peptide)
peptide: PPFCIYQEPSGQWWCYDH
Regarding B18, the binding result was “binds”.

B19: phage isolate DNWCEIVVEKGQWFCYGS (peptide)
peptide: DNWCEIVVEKGQWFCYGS
As for B19, the binding result is “binds”.

B20: phage isolate NSECGCPNMLHKEFCARH (peptide)
peptide: NSECGCPNMLHKEFCARH
B20: the binding result is reported as “binds”.

B21: phage isolate SGYCEFESDTGRWFCSSW (peptide)
peptide: SGYCEFESDTGRWFCSSW
Regarding B21, the binding result is recorded as “binds”.

B22: phage isolate YPGCYETSLSGVWFCADG (peptide)
peptide: YPGCYETSLSGVWFCADG
In the case of B22, the binding result is “binds”.

B23: phage isolate SDLCYNQSGWWELCYFD (peptide)
peptide: SDLCYNQSGWWELCYFD
Consider B23, for which the binding result is on record as “binds”.

B24: phage isolate ASTCVFHDHPYFPMCQDN (peptide)
peptide: ASTCVFHDHPYFPMCQDN
Turning to B24, the binding result is “binds”.
